Data: patent publication US20230277689

B1: plasma purified human CFI (Comptech) (protein)
chain: KVTYTSQEDLVEKKCLAKKYTHLSCDKVFCQPWQRCIEGTCVCKLPYQCPKNGTAVCATNRRSFPTYCQQKSLECLHPGTKFLNNGTCTAEGKFSVSLKHGNTDSEGIVEVKLVDQDKTMFICKSSWSMREANVACLDLGFQQGADTQRRFKLSDLSINSTECLHVHCRGLETSLAECTFTKRRTMGYQDFADVVCYTQKADSPMDDFFQCVNGKYISQMKACDGINDCGDQSDELCCKACQGKGFHCKSGVCIPSQYQCNGEVDCITGEDEVGCAGFASVTQEETEILTADMDAERRRIKSLLPKLSCGVKNRMHIRRKRIVGGKRAQLGDLPWQVAIKDASGITCGGIYIGGCWILTAAHCLRASKTHRYQIWTTVVDWIHPDLKRIVIEYVDRIIFHENYNAGTYQNDIALIEMKKDGNKKDCELPRSIPACVPWSPYLFQPNDTCIVSGWGREKDNERVFSLQWGEVKLISNCSKFYGNRFYEKEMECAGTYDGSIDACKGDSGGPLVCMDANNVTYVWGVVSWGENCGKPEFPGVYTKVANYFDWISYHVGRPFISQYNV
B2: human Complement Factor I expressed from pAAV.CFIco / AAV.CFIco (codon-optimised cDNA of SEQ ID NO: 8) (protein)
chain: KVTYTSQEDLVEKKCLAKKYTHLSCDKVFCQPWQRCIEGTCVCKLPYQCPKNGTAVCATNRRSFPTYCQQKSLECLHPGTKFLNNGTCTAEGKFSVSLKHGNTDSEGIVEVKLVDQDKTMFICKSSWSMREANVACLDLGFQQGADTQRRFKLSDLSINSTECLHVHCRGLETSLAECTFTKRRTMGYQDFADVVCYTQKADSPMDDFFQCVNGKYISQMKACDGINDCGDQSDELCCKACQGKGFHCKSGVCIPSQYQCNGEVDCITGEDEVGCAGFASVTQEETEILTADMDAERRRIKSLLPKLSCGVKNRMHIRRKRIVGGKRAQLGDLPWQVAIKDASGITCGGIYIGGCWILTAAHCLRASKTHRYQIWTTVVDWIHPDLKRIVIEYVDRIIFHENYNAGTYQNDIALIEMKKDGNKKDCELPRSIPACVPWSPYLFQPNDTCIVSGWGREKDNERVFSLQWGEVKLISNCSKFYGNRFYEKEMECAGTYDGSIDACKGDSGGPLVCMDANNVTYVWGVVSWGENCGKPEFPGVYTKVANYFDWISYHVGRPFISQYNV
B3: human Complement Factor I expressed from pAAV.CFI / AAV.CFI (cDNA of SEQ ID NO: 2, Genbank NM_000204.4) (protein)
chain: KVTYTSQEDLVEKKCLAKKYTHLSCDKVFCQPWQRCIEGTCVCKLPYQCPKNGTAVCATNRRSFPTYCQQKSLECLHPGTKFLNNGTCTAEGKFSVSLKHGNTDSEGIVEVKLVDQDKTMFICKSSWSMREANVACLDLGFQQGADTQRRFKLSDLSINSTECLHVHCRGLETSLAECTFTKRRTMGYQDFADVVCYTQKADSPMDDFFQCVNGKYISQMKACDGINDCGDQSDELCCKACQGKGFHCKSGVCIPSQYQCNGEVDCITGEDEVGCAGFASVAQEETEILTADMDAERRRIKSLLPKLSCGVKNRMHIRRKRIVGGKRAQLGDLPWQVAIKDASGITCGGIYIGGCWILTAAHCLRASKTHRYQIWTTVVDWIHPDLKRIVIEYVDRIIFHENYNAGTYQNDIALIEMKKDGNKKDCELPRSIPACVPWSPYLFQPNDTCIVSGWGREKDNERVFSLQWGEVKLISNCSKFYGNRFYEKEMECAGTYDGSIDACKGDSGGPLVCMDANNVTYVWGVVSWGENCGKPEFPGVYTKVANYFDWISYHVGRPFISQYNV

Molecular target: plasma purified C3b (Comptech), P01024
Sequence (P01024 whole entry, looked up): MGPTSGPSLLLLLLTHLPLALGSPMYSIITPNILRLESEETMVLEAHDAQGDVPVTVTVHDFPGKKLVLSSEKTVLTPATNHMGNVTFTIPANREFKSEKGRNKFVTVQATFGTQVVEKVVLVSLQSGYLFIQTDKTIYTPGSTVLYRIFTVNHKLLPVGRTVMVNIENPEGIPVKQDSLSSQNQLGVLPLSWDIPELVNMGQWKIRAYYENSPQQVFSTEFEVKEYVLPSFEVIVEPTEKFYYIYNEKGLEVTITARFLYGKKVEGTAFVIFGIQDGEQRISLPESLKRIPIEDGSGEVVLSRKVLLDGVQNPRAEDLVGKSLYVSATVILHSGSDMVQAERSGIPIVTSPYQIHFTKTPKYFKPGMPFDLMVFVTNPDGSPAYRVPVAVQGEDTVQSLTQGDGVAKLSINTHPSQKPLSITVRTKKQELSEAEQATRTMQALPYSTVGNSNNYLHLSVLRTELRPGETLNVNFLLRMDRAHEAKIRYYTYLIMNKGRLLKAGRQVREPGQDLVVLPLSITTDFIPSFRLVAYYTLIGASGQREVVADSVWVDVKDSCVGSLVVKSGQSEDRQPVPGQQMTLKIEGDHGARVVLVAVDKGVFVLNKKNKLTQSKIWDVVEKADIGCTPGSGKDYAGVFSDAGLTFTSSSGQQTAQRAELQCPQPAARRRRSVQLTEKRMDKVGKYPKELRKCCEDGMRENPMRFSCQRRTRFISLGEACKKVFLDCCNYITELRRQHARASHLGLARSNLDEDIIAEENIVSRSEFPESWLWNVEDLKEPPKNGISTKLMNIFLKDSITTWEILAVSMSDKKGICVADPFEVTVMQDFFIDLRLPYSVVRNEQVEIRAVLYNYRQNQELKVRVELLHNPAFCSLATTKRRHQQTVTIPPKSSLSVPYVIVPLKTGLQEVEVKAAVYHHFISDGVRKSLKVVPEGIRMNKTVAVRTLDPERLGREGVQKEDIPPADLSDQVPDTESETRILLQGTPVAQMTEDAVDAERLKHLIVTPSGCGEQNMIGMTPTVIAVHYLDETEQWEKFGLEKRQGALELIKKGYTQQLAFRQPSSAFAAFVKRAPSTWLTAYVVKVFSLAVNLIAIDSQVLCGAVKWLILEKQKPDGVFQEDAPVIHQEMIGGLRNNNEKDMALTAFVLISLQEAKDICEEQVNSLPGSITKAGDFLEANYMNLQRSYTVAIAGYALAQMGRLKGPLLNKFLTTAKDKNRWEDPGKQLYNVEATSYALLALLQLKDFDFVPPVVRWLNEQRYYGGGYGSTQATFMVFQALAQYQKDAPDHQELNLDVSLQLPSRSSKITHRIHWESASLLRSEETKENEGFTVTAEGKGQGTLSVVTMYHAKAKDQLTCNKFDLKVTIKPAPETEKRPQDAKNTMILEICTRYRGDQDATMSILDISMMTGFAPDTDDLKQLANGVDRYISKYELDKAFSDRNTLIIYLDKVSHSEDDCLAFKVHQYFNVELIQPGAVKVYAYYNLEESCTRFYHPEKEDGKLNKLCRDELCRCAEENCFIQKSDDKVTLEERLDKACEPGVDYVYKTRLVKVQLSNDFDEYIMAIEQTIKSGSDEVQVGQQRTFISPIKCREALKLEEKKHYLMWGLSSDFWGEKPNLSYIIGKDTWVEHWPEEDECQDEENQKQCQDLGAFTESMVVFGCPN

| Protein | C3b cleavage assay (with CFH as co-factor; immunoblot with clone 9) |
| --- | --- |
| B1 | C3b is degraded by CFIpl to iC3b and C3dg |
| B2 | CFI secreted from transduced cell lines is functionally active and cleaves the α-chain of C3b to iC3b |
| B3 | CFI secreted from transduced cell lines is functionally active and cleaves the α-chain of C3b to iC3b |
